The record followed here is patent US12359192B2, “Methods and compositions for display of macrocyclic peptides” (University of Rochester, priority 2013, dated 2025).

Numbered stars: 1 amine (or outer) side, 2 acyl side, 3 side chain; on linkers, the order of the positions; unused ones are H or OH. Bridge positions count the residues as written; N and C are the ends. Peptide text beside a SMILES is read from it. * marks the point of attachment. CH2CH2 = C(C[*:2])[*:1]; Propargyl = C#CC*

Assay [1] addresses T1, streptavidin (Streptomyces avidinii, UniProt P22629).
T1 construct: purchased Sigma-Aldrich
Description: in-solution inhibition (competitive binding) assay for streptavidin binding affinity. To be noted: versus cyclo[S(OpgY)[…]].
Description: Then, a fixed amount of streptavidin-horseradish peroxidase conjugate is added to the plate in the presence of varying amount of the bicyclic or cyclic peptide.

The target in another assay is T2, Keap1 Kelch domain (KKD) (Homo sapiens, UniProt Q14145).
T2 construct: poly-His tag with TEV protease cleavable linker (N)
T2 sequence (Q14145 321-609 limits assumed): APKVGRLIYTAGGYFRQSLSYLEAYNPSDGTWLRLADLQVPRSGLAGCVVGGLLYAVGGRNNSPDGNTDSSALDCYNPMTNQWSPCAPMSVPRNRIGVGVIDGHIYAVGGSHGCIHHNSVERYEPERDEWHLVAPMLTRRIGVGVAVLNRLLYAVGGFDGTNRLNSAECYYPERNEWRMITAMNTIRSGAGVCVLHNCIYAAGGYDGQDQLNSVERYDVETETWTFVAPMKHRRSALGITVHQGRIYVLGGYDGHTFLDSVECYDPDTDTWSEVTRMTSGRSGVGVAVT
Kind of assay: direct binding assay with plate-immobilized Keap1 Kelch domain (KKD) and HRP-conjugated anti-FLAG antibody. The following applies: linear version, O2beY substituted with OpgY. The text has this:
FIG. 46A-FIG. 46C depict the selection of macrocyclic peptide inhibitors of the Keap1/Nrf2 interaction using methods disclosed herein. […] KD values correspond to the FLAG-tagged CBD-fused peptide macrocycles. FIG. 46B depicts binding curves for selected macrocyclic peptides as determined using a direct binding assay with plate-immobilized KKD and HRP-conjugated anti-FLAG antibody for detection of the bound peptide.
FIG. 47A-FIG. 47B depicts the selection of Keap1 binding macrocyclic peptides from a naïve macrocyclic peptide phage display library. […] FIG. 47B depicts the binding curves binding curves for selected macrocyclic peptides as determined using a direct binding assay with plate-immobilized KKD and HRP-conjugated anti-FLAG antibody for detection of the bound peptide.
The macrocyclic peptide phage display system of FIG. 43 was further applied to discover macrocyclic peptides capable of targeting a biomedically relevant protein-protein interaction such as the interaction between the Kelch-like ECH-associated protein 1 (Keap1) and transcriptional regulator Nrf2. […] The purified FLAG-tagged cyclic peptides were then tested for their ability to bind the Keap1 Kelch domain (KKD) using an in vitro assay, in which peptide binding to plate-immobilized KKD is detected using a HRP-conjugated anti-FLAG antibody (FIG. 46B). […]

For a further assay, the target named is T3, Keap1 Kelch Domain (KDD) (Homo sapiens, UniProt Q14145).
T3 construct: poly-His tag with TEV protease cleavable linker (N)
Description: KD (nM). From the text:
Table printed on a drawing sheet, FIG. 47A
Head of the field: KD (nM)
The patent's description of the figure: FIG. 47A-FIG. 47B depicts the selection of Keap1 binding macrocyclic peptides from a naïve macrocyclic peptide phage display library. FIG. 47A depicts the naïve library of i/i+6-linked macrocyclic peptides (X=NNK; Y*=O2beY) and the sequences and binding affinity for selected macrocyclic Keap1-binding peptides isolated after panning the macrocyclic peptide display library against immobilized Keap1 Kelch Domain (KDD). FIG. 47B depicts the binding curves binding curves for selected macrocyclic peptides as determined using a direct binding assay with plate-immobilized KKD and HRP-conjugated anti-FLAG antibody for detection of the bound peptide.
First copying reader's note: Residue columns have no printed head; a drawn thioether linker joins Y* (first residue) and C (last residue), and the KD cells hold value ± error for binding to the Keap1 Kelch Domain (KKD).
Where the first naming reader finds the target: description_of_the_figure: isolated after panning the macrocyclic peptide display library against immobilized Keap1 Kelch Domain (KDD)

For assay [2], the target named is T1, streptavidin. Kind of assay: direct binding assay with plate-immobilized streptavidin and HRP-conjugated anti-FLAG antibody. The following applies: CBD alone (tag control). From the text:
FIG. 45A-FIG. 45C depict the affinity selection of streptavidin binding peptide macrocycles using methods disclosed herein. […] KD values correspond to the corresponding FLAG-macrocycle-CBD constructs in purified form. FIG. 45B depicts binding curves for selected peptide macrocycle hits as determined using a direct binding assay with plate-immobilized streptavidin and HRP-conjugated anti-FLAG antibody for detection of the bound peptide. […] FIG. 45D depicts phage enrichment over the four rounds of affinity selection and amplification as determined via the phage titer assay.
Studies were performed to assess the functionality of the phage display-based strategy for functional selection of thioether-linked macrocyclic peptides (FIG. 43) that can bind to a target protein. […] To this end, three peptide sequences from the ‘-GD’ family and two from the ‘-FD’ family, respectively, were subcloned into a pET22 vector for expression of the corresponding macrocyclic peptides fused to a N-terminal FLAG tag and a C-terminal chitin binding domain (CBD) and poly-histidine tag to facilitate purification and quantification. […]
Binding Assays. […] Equilibrium dissociation constants (KD) were determined by fitting the dose-response curves to a 1:1 binding isotherm equation via nonlinear regression using SigmaPlot. Mean values and standard deviations were calculated from experiments performed in triplicate.

T1 sequence (P22629 25-183, species assumed): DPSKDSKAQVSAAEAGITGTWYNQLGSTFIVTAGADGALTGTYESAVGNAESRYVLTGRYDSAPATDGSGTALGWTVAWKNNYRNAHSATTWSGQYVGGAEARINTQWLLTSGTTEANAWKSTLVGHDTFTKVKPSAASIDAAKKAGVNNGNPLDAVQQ

As to `CC(C)[C@@H]1NC(=O)[C@H](CC(N)=O)NC(=O)[C@H]([C@@H](C)O)NC(=O)[C@@H]2Cc3ccc(cc3)OCCSC[C@H](NC(=O)[C@H](Cc3ccccc3)NC(=O)[C@H](CCC(N)=O)NC(=O)[C@@H]3CCCN3C(=O)[C@H](Cc3c[nH]cn3)NC1=O)C(=O)N[C@@H](CC(N)=O)C(=O)N[C@@H](C)C(=O)N[C@@H](CS)C(=O)N2` [cStrep3(C)—Z8C(p-2beF)] (cyclo(ACYTNVHPQFCN); linker 3-11 via CH2CH2), the “increase in streptavidin binding affinity as compared to the monocyclic counterpart” value at streptavidin [1] is given as more than 2 fold.

As for `C#CCOc1ccc(C[C@H](N)C(=O)N[C@@H](CC(=O)O)C(=O)N[C@@H](CO)C(=O)N[C@@H](CCC(=O)O)C(=O)N[C@H](C(=O)NCC(=O)N[C@@H](CCC(=O)O)C(=O)N[C@@H](CS)C(=O)O)[C@@H](C)O)cc1` [linear version of KKD-m1] (H-Y(Propargyl)DSETGEC-OH; N-terminus and C-terminus assumed), the “lower affinity for Keap1 relative to KKD-m1” value at Keap1 Kelch domain (KKD) was “five-fold lower affinity”.

As to “Y* D A E T G E C (YDAETGEC; not fully specified; modified tyrosine Y*; KKD(6X)-m2) [SEQ ID NO: 251 | KKD(6X)-m2]”, the Kd in the assay with Keap1 Kelch Domain (KDD) was 40 ± 13 nM.

“Y* D I E T G E C (YDIETGEC; not fully specified; modified tyrosine Y*; KKD(6X)-m1) [SEQ ID NO: 250 | KKD(6X)-m1]” had a Kd with Keap1 Kelch Domain (KDD) of 43 ± 14 nM.

B1: CBD: chitin binding domain tag alone (protein)
chain: MKIEEGKLTNPGVSAWQVNTAYTAGQLVTYNGKTYKCLQPHTSLAGWEPSNVPALWQLQNNGNNGLELRHG
For B1, in the assay with streptavidin [2], the binding to streptavidin result is “no detectable binding”.
